Results reported in patent publication US11467166B2, “Compositions and methods for detecting molecule-molecule interactions” (ShanghaiTech University, priority 2017, dated 2022).

Experiments:
His-MATH = molecular target: T1, His-MATH (Homo sapiens, UniProt O43791); test: Peptide competition assay in the in vitro Pup modification of MATH by PUP-IT^pep1; assay type: biochemical; conditions: free peptide added at 1-512 μM; 0.2 μM His-MATH, 8 μM Pup(E); anti-His immunoblot
T1 construct: made in house; host or cells: E. coli BL21(DE3)
T1 sequence (O43791 31-161 limits assumed): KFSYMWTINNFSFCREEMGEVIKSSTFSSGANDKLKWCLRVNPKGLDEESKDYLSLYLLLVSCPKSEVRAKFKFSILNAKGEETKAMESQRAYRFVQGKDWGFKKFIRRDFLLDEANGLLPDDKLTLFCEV
Experimental: Pup modification were assayed at 37° C. for 30 min with purified recombinant proteins in a 20 μl reaction volume with 20 mM Tris 8.0, 100 mM NaCl, 10 mM ATP, and 15 mM MgCl2. The reaction also contains purified 1 μM PUP-IT, 10 μM Pup(E) or 10 mM bio-DE28. All the reactions were stopped by direct addition of 6×SDS loading buffer and analyzed on 4-20% SDS-PAGE gels (Genescript, cat. #M42015C).
Peptide competition assay (as in FIG. 2d) was performed in the presence of different peptides. Free pep1 (sequence […], SEQ ID NO: 12) and control peptide (sequence […], SEQ ID NO: 15) were synthesized and purified to >98% pure, confirmed by mass spectrometry. The peptides were dissolved in water and pH adjusted with Tris buffer to 7, stored as 2 mM stock in −80° C. The reactions were set up with 1 μM pup^SBC1, 0.2 μM His-MATH, and 8 μM Pup(E). Different amount of free pep1 or control peptide was added to each reaction to make the final peptide concentration at 1, 2, 4, 8, 16, 32, 64, 128, 256, and 512 μM. All the reactions were stopped by direct addition of 6×SDS loading buffer and analyzed on 4-20% SDS-PAGE gels, followed by immune-blotting with anti-His antibody to identify both unmodified and modified MATH. The density of modified MATH was quantified with ImageJ and then plotted with GraphPad Prism 6.

[1] = molecular target: MATH domain from human SPOP (Homo sapiens, UniProt O43791); conditions: peptide binding to MATH domain from human SPOP; known values; read-out: dissociation constant (Kd); cited from earlier work
Sequence of MATH domain from human SPOP (O43791 31-161 limits assumed): as above

CD86/CD80 = conditions: CD28 interaction with CD86/CD80; reported; cited from earlier work

Substance | inhibition of MATH modification (His-MATH) | Kd [1] | Kd (CD86/CD80)
pep1(mut): mutated pep1 peptide LACDEDTAAASSSTA (SEQ ID NO: 15), known to have defect on MATH binding | could not be fully inhibited | – | –
SPOP substrate-derived MATH-binding peptide SELDSPSSTSSSSGI (SEQ ID NO: 14), the weakest binder [pep3] | – | > 250 µM | –
SPOP substrate-derived MATH-binding peptide LACDEVTSTTSSSTA (SEQ ID NO: 12) [pep1] | dose-dependent inhibition of MATH modification | 3.7 µM | –
SPOP substrate-derived MATH-binding peptide TLFPDVSSSTHPYHG (SEQ ID NO: 13) [pep2] | – | 76 µM | –
CD28: co-stimulating receptor normally expressed on the surface of T cells | – | – | 4 µM
